Patent US20110086089

What was measured:
[1] = molecular target: p27.Pi-S83, p27 pre-phosphorylated in vitro by CK2-alpha-prime at S83
[2] = molecular target: p27.Pi-S83/T187, p27 pre-phosphorylated in vitro by CK2-alpha-prime at S83 and T187
[3] = molecular target: p27deltaPi (p27.S83A/T187A; recombinant, His-tagged)
[4] = molecular target: phosphomimicking mutant p27.S83D/T187D (recombinant, His-tagged)
[5] = molecular target: recombinant His-tagged wt.p27
[6] = molecular target: p27.T187A (recombinant, His-tagged)
[7] = molecular target: p27.Pi-T187, p27 pre-phosphorylated in vitro by CK2-alpha-prime at T187
Sequence of p27.Pi-T187, p27 pre-phosphorylated in vitro by CK2-alpha-prime at T187 (chain, as listed by the source): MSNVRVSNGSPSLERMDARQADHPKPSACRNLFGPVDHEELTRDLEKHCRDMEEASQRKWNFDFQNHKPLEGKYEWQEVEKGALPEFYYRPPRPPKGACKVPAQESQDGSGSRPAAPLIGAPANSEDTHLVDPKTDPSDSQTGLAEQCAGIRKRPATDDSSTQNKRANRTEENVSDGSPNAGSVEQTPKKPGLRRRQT

[8] = molecular target: p27.S83A (recombinant, His-tagged)
Sequence of p27.S83A (recombinant, His-tagged) (chain, as listed by the source S83A): as the sequence (chain, as listed by the source) above

Sequence of phosphomimicking mutant p27.S83D/T187D (recombinant, His-tagged) (chain, as listed by the source S83D T187D): as the sequence (chain, as listed by the source) above, with A83D, T187D counted along it
Sequence of p27deltaPi (p27.S83A/T187A; recombinant, His-tagged) (chain, as listed by the source S83A T187A): as the sequence (chain, as listed by the source) above, with T187A counted along it

Protein | recombinant CK2-alpha-prime activity in vitro (32P incorporated into histone H1) [1] | recombinant CK2-alpha-prime activity in vitro (32P incorporated into histone H1) [2] | phosphorylation of p27 in in vitro kinase reactions (32P incorporated into p27) [3] | recombinant CK2-alpha-prime activity in vitro (32P incorporated into histone H1) [4] | phosphorylation of p27 in in vitro kinase reactions (32P incorporated into p27) [5] | recombinant CK2-alpha-prime activity in vitro (32P incorporated into histone H1) [5] | reduction in phosphorylation by CK2-alpha-prime [6] | recombinant CK2-alpha-prime activity in vitro (32P incorporated into histone H1) [7] | reduction in phosphorylation by CK2-alpha-prime [8]
recombinant active His-tagged CK2-alpha-prime/beta (protein) chain 1: MPGPAAGSRARVYAEVNSLRSREYWDYEAHVPSWGNQDDYQLVRKLGRGKYSEVFEAINITNNERVVVKILKPVKKKKIKREVKILENLRGGTNIIKLIDTVKDPVSKTPALVFEYINNTDFKQLYQILTDFDIRFYMYELLKALDYCHSKGIMHRDVKPHNVMIDHQQKKLRLIDWGLAEFYHPAQEYNVRVASRYFKGPELLVDYQMYDYSLDMWSLGCMLASMIFRREPFFHGQDNYDQLVRIAKVLGTEELYGYLKKYHIDLDPHFNDILGQHSRKRWENFIHSENRHLVSPEALDLLDKLLRYDHQQRLTAKEAMEHPYFYPVVKEQSQPCADNAVLSSGLTAAR chain 2: not shown | an incremental loss of p27 inhibitory activity towards CK2-alpha-prime when compared to wt.p27 | Simultaneous phosphorylation of S83/T187 in p27.Pi-S83/T187 or introducing phosphomimicking mutations in p27.S83D/T187D abolished the ability of p27 to inhibit CK2-alpha-prime | CK2-alpha-prime failed to phosphorylate p27deltaPi containing double-substituted mutations (S83A/T187A) | Simultaneous phosphorylation of S83/T187 in p27.Pi-S83/T187 or introducing phosphomimicking mutations in p27.S83D/T187D abolished the ability of p27 to inhibit CK2-alpha-prime | Wt.p27 was phosphorylated by CK2-alpha-prime | Wt.p27 completely inhibited recombinant CK2-alpha-prime activity in vitro | The S83A and T187A point mutants exhibited a 68% and 27% reduction in phosphorylation by CK2-alpha-prime, respectively | an incremental loss of p27 inhibitory activity towards CK2-alpha-prime when compared to wt.p27 | The S83A and T187A point mutants exhibited a 68% and 27% reduction in phosphorylation by CK2-alpha-prime, respectively
catalytically-inactive kinase-dead CK2-alpha-prime (kd.CK2-alpha-prime), K69M (protein) MPGPAAGSRARVYAEVNSLRSREYWDYEAHVPSWGNQDDYQLVRKLGRGKYSEVFEAINITNNERVVVMILKPVKKKKIKREVKILENLRGGTNIIKLIDTVKDPVSKTPALVFEYINNTDFKQLYQILTDFDIRFYMYELLKALDYCHSKGIMHRDVKPHNVMIDHQQKKLRLIDWGLAEFYHPAQEYNVRVASRYFKGPELLVDYQMYDYSLDMWSLGCMLASMIFRREPFFHGQDNYDQLVRIAKVLGTEELYGYLKKYHIDLDPHFNDILGQHSRKRWENFIHSENRHLVSPEALDLLDKLLRYDHQQRLTAKEAMEHPYFYPVVKEQSQPCADNAVLSSGLTAAR |  |  |  |  | Wt.p27 was phosphorylated by CK2-alpha-prime but not catalytically-inactive kinase-dead CK2-alpha-prime (kd. CK2-alpha-prime) |  |  |  | 
